94 variants from publication PMC11969024, “Development of chemokine network inhibitors using combinatorial saturation mutagenesis” (Communications Biology, 2025) can be followed below.

The labels stand for the following.
B1: peptide HD2 (from tick evasin EVA4) / CCL19 (biotinylated, synthetic) (parent)
chain 1: EEDDYTAYAPLTCYFT
chain 2: GTNDAEDCCLSVTQKPIPGYIVRNFHYLLIKDGCRVPAVVFTTLRGRQLCAPPDQPWVERIIQRLQRTSAKMKRRSS
B2: peptide HD2 (from tick evasin EVA4) / CCL22 (biotinylated, synthetic) (parent)
chain 1: EEDDYTAYAPLTCYFT
chain 2: GPYGANMEDSVCCRDYVRYRLPLRVVKHFYWTSDSCPRPGVVLLTFRDKEICADPRVPWVKMILNKLSQ
B3: peptide HD2 (from tick evasin EVA4) / CCL17 (biotinylated, synthetic) (parent)
chain 1: EEDDYTAYAPLTCYFT
chain 2: ARGTNVGRECCLEYFKGAIPLRKLKTWYQTSEDCSRDAIVFVTVQGRAICSDPNNKRVKNAVKYLQSLERS

Variants of B1 are the subject of one assay. The following applies: with CCL19 (biotinylated, synthetic); scale: log2.
Turning to chain 1 EEDDYTAYAPLTQYFT [chain 1 C13Q], the enrichment was -8.35.

As to chain 1 EEDDYTAYAPLTHYFT [chain 1 C13H], the enrichment is -7.62. As to chain 1 EEDDYTAYAPLTYYFT [chain 1 C13Y], the enrichment was -7.72. On the same count and under the same terms, next, chain 1 EEDDYTAYAPLTAYFT [chain 1 C13A]: -9.6; chain 1 EEDDYTAYAPLTTYFT [chain 1 C13T]: -8.2. Same read-out and setting: next, chain 1 EEDDYTAYAPLTIYFT [chain 1 C13I]: -7.15; chain 1 EEDDYTAYAPLTKYFT [chain 1 C13K]: -8.09; chain 1 EEDDYTAYAPLTVYFT [chain 1 C13V]: -10.3. In the case of chain 1 EEDDYTCYAPLTCYFT [chain 1 A7C], the enrichment is -8.81. For chain 1 EEDDYTAIAPLTCYFT [chain 1 Y8I], the enrichment is -8.35.

As for chain 1 EEDDYTANAPLTCYFT [chain 1 Y8N], the enrichment was -7.1. Still for that read-out and setting: in the case of chain 1 EEDDYTACAPLTCYFT [chain 1 Y8C] it was -8.65.

As for chain 1 EEDDYTARAPLTCYFT [chain 1 Y8R], the enrichment is -7.16.

Consider chain 1 EEDDYTADAPLTCYFT [chain 1 Y8D], for which the enrichment is -6.51. On the same count and under the same terms, in the case of chain 1 EEDDYTATAPLTCYFT [chain 1 Y8T] it was -7.46.

chain 1 EEDDYTAEAPLTCYFT [chain 1 Y8E]: the enrichment is -5.16. As for chain 1 EEDDYTAAAPLTCYFT [chain 1 Y8A], the enrichment was -7.75. The same measure, in the same setting: in the case of chain 1 EEDDYTAKAPLTCYFT [chain 1 Y8K] it was -5.04. On to chain 1 EEDDYTAGAPLTCYFT [chain 1 Y8G], for which the enrichment is -7.68.

In the case of chain 1 EEDDYTAPAPLTCYFT [chain 1 Y8P], the enrichment is -6.84. Same read-out and setting: in the case of chain 1 EEDDYTAQAPLTCYFT [chain 1 Y8Q] it was -5.33. Take chain 1 EEADYTAYAPLTCYFT [chain 1 D3A]: the enrichment was -6. On the same count and under the same terms, next, chain 1 EEQDYTAYAPLTCYFT [chain 1 D3Q]: -3.96; chain 1 EECDYTAYAPLTCYFT [chain 1 D3C]: -8.87. Same read-out and setting: next, chain 1 EEHDYTAYAPLTCYFT [chain 1 D3H]: -5.94; chain 1 EERDYTAYAPLTCYFT [chain 1 D3R]: -6.43; chain 1 EEIDYTAYAPLTCYFT [chain 1 D3I]: -8.83.

As for chain 1 EEMDYTAYAPLTCYFT [chain 1 D3M], the enrichment is -6.81. Same read-out and setting: next, chain 1 EEKDYTAYAPLTCYFT [chain 1 D3K]: -4.33; chain 1 EETDYTAYAPLTCYFT [chain 1 D3T]: -6.58; chain 1 EEDDYTAYAPLTCTFT [chain 1 Y14T]: -7.91. On the same count and under the same terms, in the case of chain 1 EEDDYTAYAPLTCQFT [chain 1 Y14Q] it was -7.02; in that of chain 1 EEDDYTAYAPLTCSFT [chain 1 Y14S], -8.64. As to chain 1 EEDDYTAYAPLTCEFT [chain 1 Y14E], the enrichment was -7.73.

On to chain 1 EEDDYTAYAPLTCCFT [chain 1 Y14C], for which the enrichment is -7.29. On the same count and under the same terms, in the case of chain 1 EEDDYTAYAPLTCDFT [chain 1 Y14D] it was -6.5; in that of chain 1 EEDDYTAYAPLTCNFT [chain 1 Y14N], -5.87. Same read-out and setting: next, chain 1 CEDDYTAYAPLTCYFT [chain 1 E1C]: -8.72; chain 1 QEDDYTAYAPLTCYFT [chain 1 E1Q]: -3.57; chain 1 EEDDATAYAPLTCYFT [chain 1 Y5A]: -6.04. As to chain 1 EEDDVTAYAPLTCYFT [chain 1 Y5V], the enrichment is -8.24. On the same count and under the same terms, in the case of chain 1 EEDDRTAYAPLTCYFT [chain 1 Y5R] it was -6.02.

In the case of chain 1 EEDDPTAYAPLTCYFT [chain 1 Y5P], the enrichment was -5.7. Same read-out and setting: in the case of chain 1 EEDDETAYAPLTCYFT [chain 1 Y5E] it was -2.46; in that of chain 1 EEDDQTAYAPLTCYFT [chain 1 Y5Q], -4.33. The same measure, in the same setting: next, chain 1 EEDDGTAYAPLTCYFT [chain 1 Y5G]: -6.08. Regarding chain 1 EEDDKTAYAPLTCYFT [chain 1 Y5K], the enrichment was -4.57. Turning to chain 1 EEDDYTAYAPLTCYIT [chain 1 F15I], the enrichment is -5.23.

Consider chain 1 EEDDYTAYAPLTCYNT [chain 1 F15N], for which the enrichment was -5.7. Take chain 1 EEDRYTAYAPLTCYFT [chain 1 D4R]: the enrichment was -6.06. Still for that read-out and setting: in the case of chain 1 EEDTYTAYAPLTCYFT [chain 1 D4T] it was -6.85.

For the variant chain 1 EEDGYTAYAPLTCYFT [chain 1 D4G], the enrichment was -5.19. Same read-out and setting: in the case of chain 1 EEDCYTAYAPLTCYFT [chain 1 D4C] it was -8.21; in that of chain 1 EEDHYTAYAPLTCYFT [chain 1 D4H], -6.74; in that of chain 1 EEDKYTAYAPLTCYFT [chain 1 D4K], -5.85.

Take chain 1 EEDNYTAYAPLTCYFT [chain 1 D4N]: the enrichment was -6.94. On the same count and under the same terms, next, chain 1 EEDEYTAYAPLTCYFT [chain 1 D4E]: -4.92; chain 1 EEDPYTAYAPLTCYFT [chain 1 D4P]: -6.04; chain 1 EEDAYTAYAPLTCYFT [chain 1 D4A]: -7.05.

In the case of chain 1 EEDDYTAYAPLTCYFP [chain 1 T16P], the enrichment is -6.44.

With chain 1 EHDDYTAYAPLTCYFT [chain 1 E2H], the enrichment was -6.61.

On to chain 1 EKDDYTAYAPLTCYFT [chain 1 E2K], for which the enrichment is -4.12.

On to chain 1 EPDDYTAYAPLTCYFT [chain 1 E2P], for which the enrichment was -6.02. On the same count and under the same terms, in the case of chain 1 EQDDYTAYAPLTCYFT [chain 1 E2Q] it was -3.87.

Variants of B2 are the subject of the next assay. The following applies: with CCL22 (biotinylated, synthetic); scale: log2.
Turning to chain 1 EEDCYTAYAPLTCYFT [chain 1 D4C], the enrichment is -9.24. In the case of chain 1 EEDRYTAYAPLTCYFT [chain 1 D4R], the enrichment was -7.09.

As to chain 1 EEDGYTAYAPLTCYFT [chain 1 D4G], the enrichment is -6.22. Same read-out and setting: next, chain 1 EEDTYTAYAPLTCYFT [chain 1 D4T]: -7.88. Still for that read-out and setting: in the case of chain 1 EEDKYTAYAPLTCYFT [chain 1 D4K] it was -6.88; in that of chain 1 EEDHYTAYAPLTCYFT [chain 1 D4H], -7.77. Still for that read-out and setting: in the case of chain 1 EERDYTAYAPLTCYFT [chain 1 D3R] it was -7.45. chain 1 EECDYTAYAPLTCYFT [chain 1 D3C]: the enrichment was -9.89. The same measure, in the same setting: in the case of chain 1 EEQDYTAYAPLTCYFT [chain 1 D3Q] it was -4.99; in that of chain 1 EEDDYTAYIPLTCYFT [chain 1 A9I], -9.99. On the same count and under the same terms, next, chain 1 EEDDYTAYCPLTCYFT [chain 1 A9C]: -10.1; chain 1 EEDDYTAYPPLTCYFT [chain 1 A9P]: -7.8.

As to chain 1 EEDDYTAYDPLTCYFT [chain 1 A9D], the enrichment was -8.23. For the variant chain 1 ERDDYTAYAPLTCYFT [chain 1 E2R], the enrichment is -7.13. Same read-out and setting: in the case of chain 1 ECDDYTAYAPLTCYFT [chain 1 E2C] it was -10. The same measure, in the same setting: in the case of chain 1 EEDDYTAYAILTCYFT [chain 1 P10I] it was -8.44. Still for that read-out and setting: next, chain 1 EEDDYTAYAALTCYFT [chain 1 P10A]: -8.71; chain 1 EEDDYTAYAHLTCYFT [chain 1 P10H]: -7.95. Regarding chain 1 EEDDYTAYACLTCYFT [chain 1 P10C], the enrichment is -9.72. For chain 1 EEDDYTAYAKLTCYFT [chain 1 P10K], the enrichment was -6.96. The same measure, in the same setting: next, chain 1 EEDDYTCYAPLTCYFT [chain 1 A7C]: -9.84.

As to chain 1 EEDDYTAYAPLTRYFT [chain 1 C13R], the enrichment is -10.5. Same read-out and setting: in the case of chain 1 EEDDYTAYAPLTQYFT [chain 1 C13Q] it was -9.37; in that of chain 1 EEDDYTAYAPLTKYFT [chain 1 C13K], -9.12; in that of chain 1 CEDDYTAYAPLTCYFT [chain 1 E1C], -9.75.

In a further assay the parent is B3. To be noted: with CCL17 (biotinylated, synthetic); scale: log2.
In the case of chain 1 EEDDYTATAPLTCYFT [chain 1 Y8T], the enrichment was -8.59.

For the variant chain 1 EEDDYTAYAPLTCEFT [chain 1 Y14E], the enrichment was -8.87. Still for that read-out and setting: next, chain 1 EEDDYTAYAPLTCDFT [chain 1 Y14D]: -7.63; chain 1 EEDDYTAYAPLTCNFT [chain 1 Y14N]: -7; chain 1 EEDDYTAYAPLTCRFT [chain 1 Y14R]: -10.2.
